{"source": "paper PMC9933118", "about": "(Proceedings of the National Academy of Sciences of the …, 2023)", "key": {"[1]": {"biological_target": "biotinylated ZF456 protein (BCL11A) (Homo sapiens, UniProt Q9H165, biotin (site not stated))", "sequence (Q9H165 737-835)": "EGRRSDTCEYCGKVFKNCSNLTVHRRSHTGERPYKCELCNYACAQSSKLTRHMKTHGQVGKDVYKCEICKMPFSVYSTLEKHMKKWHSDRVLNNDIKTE", "experiment": "AlphaScreen or HTRF"}, "[2]": {"biological_target": "BCL11A ZF456 (residues 737 to 835) (Homo sapiens, UniProt Q9H165, 15N-labelled in the NMR experiment)", "sequence (Q9H165 737-835)": "as above"}, "[3]": {"biological_target": "GST-ZF456 (Homo sapiens, UniProt Q9H165)", "sequence (Q9H165 737-835)": "as above", "experiment": "pull-down"}, "[4]": {"biological_target": "Twin-Strep-tagged ZF456 (Homo sapiens, UniProt Q9H165)", "sequence (Q9H165 737-835)": "as above", "experiment": "SPR"}, "[5]": {"biological_target": "ZF456 of BCL11B (Homo sapiens (assumed, as for BCL11A), UniProt Q9C0K0)", "sequence (Q9C0K0 whole entry, looked up, tested part not stated)": "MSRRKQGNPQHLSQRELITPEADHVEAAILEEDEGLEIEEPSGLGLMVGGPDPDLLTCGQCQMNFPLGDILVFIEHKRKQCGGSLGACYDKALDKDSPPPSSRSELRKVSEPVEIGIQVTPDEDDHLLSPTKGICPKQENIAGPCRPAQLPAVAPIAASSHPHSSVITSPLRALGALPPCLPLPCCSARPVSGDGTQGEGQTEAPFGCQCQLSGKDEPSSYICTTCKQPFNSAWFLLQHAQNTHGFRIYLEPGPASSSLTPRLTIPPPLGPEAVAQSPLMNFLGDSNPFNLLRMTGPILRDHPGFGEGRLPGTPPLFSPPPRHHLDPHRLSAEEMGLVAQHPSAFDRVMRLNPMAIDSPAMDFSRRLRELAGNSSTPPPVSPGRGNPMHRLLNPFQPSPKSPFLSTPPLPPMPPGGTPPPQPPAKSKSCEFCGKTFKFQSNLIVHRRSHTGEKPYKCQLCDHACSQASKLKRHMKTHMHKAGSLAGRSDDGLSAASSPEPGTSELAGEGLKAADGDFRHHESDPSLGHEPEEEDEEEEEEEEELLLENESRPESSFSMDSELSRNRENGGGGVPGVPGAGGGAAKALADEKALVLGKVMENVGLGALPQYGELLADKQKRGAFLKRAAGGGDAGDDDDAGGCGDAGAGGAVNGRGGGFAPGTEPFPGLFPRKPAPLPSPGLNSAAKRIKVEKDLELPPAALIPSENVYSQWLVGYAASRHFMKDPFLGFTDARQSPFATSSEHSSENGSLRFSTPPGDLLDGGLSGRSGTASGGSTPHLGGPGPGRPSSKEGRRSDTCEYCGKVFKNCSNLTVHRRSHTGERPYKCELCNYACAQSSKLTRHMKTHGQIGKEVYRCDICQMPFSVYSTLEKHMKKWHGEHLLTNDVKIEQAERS", "experiment": "AlphaScreen or HTRF"}}}
{"binder": "Nb6101-14 (VHH) VHH: RVQLVESGGGLVQAGGSLRLSCAADGFDFSSYAMGWYRQAPGYEDELVAAITASGSYTYYSDSVKGRFTISRDNAKNTVYLQMNSLKPEDTAVYYCAALSYVAEGYWGQGTQVTVSS", "values": [{"measurement": "Kd", "setting": "[1]", "result": "26.7 ± 0.7", "unit": "nM"}]}
{"binder": "Nb6101-19 (VHH) VHH: RVQLVESGGGLVQAGGSLRLSCAADGFDFKSYAMGWYRQAPGREDELVAAITASGDYTYYADSVKGRFTISRDNAKNTVYLQMNSLKPDDTAVYYCAALSYVAEGYWGQGTQVTVSS", "values": [{"measurement": "Kd", "setting": "[1]", "result": "21.9 ± 0.4", "unit": "nM"}]}
{"binder": "Nb6101-22 (VHH) VHH: RMQLVESGGGLVQAGGSLRLSCAADGFDFSSYAMGWYRQAPGREDELVAAITASGSYTYYSDSVKGRFTISRDNAKNTVYLQMNSLKPDDTAVYYCAALSYVAEGYWGQGTQVTVSS", "values": [{"measurement": "Kd", "setting": "[1]", "result": "54.6 ± 0.9", "unit": "nM"}]}
{"binder": "Nb6101-20 (VHH) VHH: RVQLVESGGGLVQAGGSLRLSCAADGFDFKSYAMGWYRQAPGYEDELVAAITASGSYTYYSDSVKGRFTISRDNAKNTVYLQMNSLKPEDTAVYYCAALSYVAEGYWGQGTQVTVSS", "values": [{"measurement": "Kd", "setting": "[1]", "result": "77.2 ± 0.5", "unit": "nM"}]}
{"binder": "Nb5344 (VHH) VHH: SGGGLVQAGDSLRLSCAASGSTFSGYAMGWYRQAPGKERELVAAITSSGASTYYADSVRGRFTISRDNAKNTVYLQMNSLKPEDTAVYYCAALDEGYLDYDSWGQGTQVTVSS", "values": [{"measurement": "Kd", "setting": "[2]", "result": "3420 ± 80", "unit": "nM"}]}
{"binder": "Nb5344(N74D) (VHH) VHH: SGGGLVQAGDSLRLSCAASGSTFSGYAMGWYRQAPGKERELVAAITSSGASTYYADSVRGRFTISRDDAKNTVYLQMNSLKPEDTAVYYCAALDEGYLDYDSWGQGTQVTVSS", "values": [{"measurement": "Kd", "setting": "[2]", "result": "1200 ± 50", "unit": "nM"}]}
{"binder": "Nb61 (VHH) VHH: QVQLVESGGGLVQAGGSLRLSCAASGFIFDSYAMGWYRQAPGKERELVAAITSSGSSTYYADSVKGRFTISRDNAKNTVYLQMNSLKPEDTAVYYCAALDYVIDGYWGQGTQVTVSS", "values": [{"measurement": "binding result", "setting": "[3]", "result": "binds"}]}
{"binder": "Nb6101(M45D) (VHH) VHH: RVQLVESGGGLVQAGGSLRLSCAASGFIFDSYAMGWYRQAPGKEDELVAAITSSGSSTYYADSVKGRFTISRDNAKNTVYLQMNSLKPEDTAVYYCAALDYVIDGYWGQGTQVTVSS", "values": [{"measurement": "Kd", "setting": "[4]", "result": "157 ± 9", "unit": "nM"}, {"measurement": "fold improvement of binding affinity against Nb6101", "setting": "[4]", "result": "~6", "unit": "fold"}]}
{"binder": "Nb6101 (VHH) VHH: RVQLVESGGGLVQAGGSLRLSCAASGFIFDSYAMGWYRQAPGKEMELVAAITSSGSSTYYADSVKGRFTISRDNAKNTVYLQMNSLKPEDTAVYYCAALDYVIDGYWGQGTQVTVSS", "values": [{"measurement": "binding result", "setting": "[5]", "result": "no binding"}]}
